# B1: NC-DNA (dsDNA)
# DNA 1: GACTTGTGGAAAATCTCTAGCAGTGCAT
# DNA 2: ATGCACTGCTAGAGATTTTCCACAAGTC
# B2: Lef-DNA (dsDNA)
# DNA 1: GAGCTTCAAAGGGTG
# DNA 2: CACCCTTTGAAGCTC
# B3: Cm47 (Cm48 in Table 2) (structured_RNA)
# RNA: GCCCCAUGGAGGUGGCUGGGGCCAGCCUCAUGGAGGUGGCUGGGGC
# B4: Mm38 (structured_RNA)
# RNA: CAGGGUGGCACCUGGGGGCAGCCCCACGGUGGUGGCUG
# B5: Hm45 (structured_RNA)
# RNA: GCCUCAUGGUGGUGGCUGGGGGCAGCCUCAUGGUGGUGGCUGGGG
# B6: Ym44 (structured_RNA)
# RNA: GUCAAGGACAAGGUCAAGGUCAAGGUUCUUUUACUGCUUUGGGC
# B7: RQ11+12 (structured_RNA)
# RNA: GGGGUUUCCAACCGGAAUUUGAGGGAUGCCUAGGCAUCCCCCGUGCGUCCCUUUACGAGGGAUUGUCGACUCUAGUCGACGUCUGGGCGAAAAAUGUACGAGAGGACCUUUUCGGUACAGACGGUACCUGAGGGAUGCCUAGGCAUCCCCGCGCGCCGGUUUCGGACCUCCAGUGCGUGUUACCGCACUGUCGACCC
# B8: MNV (structured_RNA)
# RNA: GGGUUCAUAGCCUAUUCGGCUUUUAAAGGACCUUUUUCCCUCGCGUAGCUAGCUACGCGAGGUGACCCCCCGAAGGGGGGUGCCCC
# B9: RQT157 (RQ157) (structured_RNA)
# RNA: GGGGUUUCGAACCGGAAUUUGAGGGAUGCCUAGGCAUCCCCCGUGCGUCCCUUUACGAGGGAUUGUCGACUCUAGAGGAUCCGGUACCUGAGGGAUGCCUAGGCAUCCCCGCGCGCCGGUUUCGGACCUCCAGUGCGUGUUACCGCACUGUCGACCC
# Target: T1, alpha-PrP (human recombinant prion protein) (human, UniProt P04156 23-230)
# Assay: fluorescence anisotropy; pH 5
# Details: not given
row,Binder,Kd [nM]
1,B1,1110 ± 230
2,B2,1250 ± 320

# Same assay, conditions: pseudoknot
row,Binder,Kd [nM]
1,B3,1510 ± 350
2,B4,3820 ± 400
3,B5,2900 ± 410
4,B6,1630 ± 400

# Target: T1, alpha-PrP (human recombinant prion …)
# Assay: fluorescence anisotropy; pH 7.2
# Details: not given
row,Binder,Kd [nM]
1,B7,2200 ± 1500
2,B8,4150 ± 610
3,B1,1290 ± 210
4,B2,5730 ± 570
5,B9,2890 ± 1500

# Same assay, conditions: pseudoknot
row,Binder,Kd [nM]
1,B3,1610 ± 400
2,B5,3340 ± 150
3,B6,1790 ± 570
